Laboratory results as given in the nanobody polyreactivity screen of Harvey et al. (2022).

Experiment: yeast display, Sf9 membrane polyspecificity reagent, FACS + sequencing; frameworks hold sequencing errors
Summary of the method: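 Polyreactivity labels are assigned by the sorting gate from which each nanobody was recovered. The gates were low and high (top ~1%), set on anti-HA fluorescence for expression and streptavidin fluorescence for reagent binding. Before sorting, galactose-induced (36–48 hours) yeast display cells were stained for 1 hour at 4 °C with 10% biotinylated, detergent-solubilized Sf9 membrane reagent.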

Sequence | polyreactivity (PSR sort gate)
QVQLVESGGGLVQAGGSLRLSCAASGRIFSTYAMGWYRQAPGKERELVAAINKIGGSTYYADSVKGRFTISRDNAKNTDYLQMNSLKPEDSAVYYCAADAPYYPVRRYYYWGQGTQVTVSS | low polyreactivity
QVQLVDSGGGLVQAGGSLRLSCAASGISFGVYAMGWYRQAPGKERELVAAISRRGASTYYADSVKGRFTISRDNAKTTVYLQMNILNPEDTAVYYCPAYLARRQYDYWGQGTKVTVSS | high polyreactivity
QVQLVESGGGLVQAGGSLRLSCAASGFTSWVYAMGWYRPAPGKERELVAAITWSTDDTYYADSVKGRFTISRDNSKNTVYIQINSLKPEDSAVYYCAAQQYTYVETWDGYDYWGQGTQVTVSS | low polyreactivity
QVQLQESGGGVQAGGSLRLSCAASGSISAPILMVWYRQAPGKERELVAGIGGGANTYYADSVKGRFTVSRDNAKYTVYLQMNSLKPEDTAVYYCAAGDYYWTNFGYWGQGTQVTASS | high polyreactivity
QVQLVESGGGLVQAGGSLRLSCAASGRIFRGYAMGWYRQAPGKERELVAAISASGGSTYYADSVKGRFTISRDNAKNTVYLQMNSLKPEDTAVYYCATTIFYTYYGLYDYWGQGTQVTVSS | high polyreactivity
QGQLVESGGALVQAGGSLRLSCAASGGTFFYYVMGWYRQAPGQERELVAAITGAGGSTYYADSVKGRFTSSRDNAKNTVYLQMNSLKPEDTAVYYCAADVSFTQSDGRLAEYGYWGQGTQVTVSS | low polyreactivity
QVQLVESGGGLVQAGGSLRLSCAASGSTFSYYAMGWYRQAPGKERELVAAIRSDGGSTYYADSVKGRFTISRDNAKNTVYLQMNSLKPEDTAVYYCNAPYRRSAKFRRYGYDYWGQGTQVTVSS | high polyreactivity
QVQHVESGGGLVQSGGSLRLSCAASGSIFGKYSMGWYRQAPGKERELVAAISDSGSITYYADSVKGRLTISRDNAMYTFYLQMNSLKPEDTAVYYCAAEVNYYQRFKYEYWGQGTQVTVSS | high polyreactivity
QVQLVESGGGFVQAGGSLRFSCAASGRIFPGYAMGWYRQAPGKERELVAAISASGGSTYDADSVKGRFTISRDNAKNPVYLQMNSLKPEDPAVYYCNAVYRLIRFDYWGQGTQVTVSS | high polyreactivity
KVQLVESGGGLDQAGGSLRLSCAASGIIFAYNVMGRYRQAPGKERELVAAIRWGGGSTYADSVKGRFSISRDNAKNTVYLQMTRLKPEDTAVYYCNVERWWWSRTYCVKYDYWGQGTQVNVSS | high polyreactivity
QVQLVESGGGLVQARGSLRLSCAASGLIFYGNAMGWYRQAPGKERELVAAISRRGGRTYYADSVKGRFTISRDNAKNTVYLQMNSLKPEDTAVYYCAKRYKSIPRYWSKEYDYWGQGTQVTVSS | high polyreactivity
QVQLVESGGGLVQAGGSLRLSCAASGRIFDVNAMGWYRQAPGKERELVAAIRSGGRTNYADSVNGRFTISRDNAKNTVYLQMNSLKPEDTAVYYCAAVVWSSLDDYWGQGTQVTVSS | high polyreactivity
QVQLVESGGGLVQAGGSLRLSCAASGRIFHWYTMGWYRQAPGKEMELVAAISGSGGSTHYADSVKGRLTISRDNAKNTVYLQMNSLKPEDTAVYYCAAYIPVRYGTSDRGYWGQGTQVTVSS | low polyreactivity
QFQLVESVGGLVQAGGSLRLSCAASGRTGVNAMGWYRQAPRKERELVAAINNGDSTYYADSVKGRFTISRDNAKNTVYLQMNSLKPEDTAVYYCAARSALYPKYESWGQGTQVTVSS | low polyreactivity
QEHLVESGGGLDQAGGRLRLSCAASGSIFAAYAMGWYRHAPGKERELVAAIKWTDGSTYYADSVKGRFTISRDIAMNTVYLQMNSLKPEDTAVYYCIRRQYGRKKQYDYWVQGTQVTVSS | high polyreactivity
QVQLVESGGGLVQAGGSLRLSCAASGRIFGYYAMGWYRQAPGKERELVARITWSGGDTYYADSVKGRFTISRDNAKNTVYLQMNSLKPEDTAVYYCAADYLDSTYGYVYGWDDYWGQGTQVTVSS | low polyreactivity
QVQLVESGGGLVQAGGSLRLSCAASGRIFKINAMGWYRPAPGKERELVAGISGSGSDTYYADSVKGRFTISRDNAKNTVYLQMNSLKPEDTAVYYCAATVVQYYDRDYWGQGTQVTVSS | low polyreactivity
QVHLVESGGGLVQAGGSLRLSCAASGRIFYYNAIGWYRQAPGKERELVANITRARGTYYADSVKGPFTISRDNAKNTVYLQMNSLKPEDTAVYYCAKRHPIVDDYKGDYWGQGTQVTVSS | low polyreactivity
QVQLVESGGGLVKAGGSLRLSCAASAWYAMGWYRQAPGKEREFVAAITFSGSSTYYADSVKGRFTISRDNAKNTVYLQMNSLKPEVTAVYYCNADWWEWGQGTQVTVSS | low polyreactivity
QVQLVESGGGLVQAGGSLRLSCAASGFTFSRNVMGWYRQAPGKERELVADITLSGASTYYADSVKGRFTISRDNAKNTVYLQMNSLKPEDTAVYYCAADPYHWRCGWRHDYWGQGTQVTVSS | low polyreactivity
QVQLLESGGGLVQAGGSLRLSCAASGRIFSFYTMGWYRQAPGKERELVAAITWRGGSTYYADSVKGRFTISRDNAKNTVYLQMNSLKPEDTAVYYCAAEVYGAVYDYWGQGTQVTVSS | low polyreactivity
QVQLVESGGGLDQAGGSLRLSCAACGIIFYVYDMGGYRQAPGKERELVPISGSSTYYADSVKGRFTISRDNAKNSVYLQMNSLKPEDTAVYYWSADGVELYDYWGQGTQVTVSS | low polyreactivity

Sequence | polyreactivity (PSR sort gate)
QVQLVETGGGLVQAGGSLRLSCAASGITSRPYVMGWYRQAPGKERELVAAISLTGGRTYYADSVKGRFTISRDNAKNTVYLQMNSPKPEDTAVYYCAAARSPYKYSYWGQGTQVTVSS | high polyreactivity
QVQLVESGGGLVQAGGSHRLSCASSGIIFAWYVMGWSRQAPGKDSELVAAITQSGGSTFYADSVKGRFTISRDNAKNTVYLQMNSLKPEDTEVYYCNTEDFFNVPEMDSWGQGTQVTVSS | low polyreactivity
QVQLVESGGGLVQAGGSLRLSCAASGIIISRYAMGWYRQAPGKERELVADISIGDSTNYADSVKGRFTISRDNAKNTVYLQMNSLKPEDTAVYYCAAGDYFYSYYYWGQGTQVTVSS | low polyreactivity
QVQLVESGGGLVQAGGSLRLSCAASGSTFGHNAMGWYRQATGKERELVAAISKSGGRTYYADSVKGRFTISRDNAKNTVYLQMNSLKPEDTAVYYCAKDGVVGSGTLNIYDYWGQGTQVTVSS | low polyreactivity
QVQLVESGGGLVQAGGSLRLSCAASGSILVGNAMGWYRQAPGKERELVAAISKSGSSTHYADSVKGRFTISRDNAKNTVYLQMNSLKPEDTAVYYCNAVGRVYRAKYDYWGQGTQVTVSS | high polyreactivity
QVQLVESGGGLVQAGGSLRLICAASGFTFGYYAMGWYRQAPGKERELVAAITSRGTRTSYADSVKGRFTISRDNEKNTVYLQMNSLKPEDTAVNYCAARVLRGLGEYYWGQGTQVTVSS | high polyreactivity
QVQLVESGGGLVQAGGSLRLSCAASGIIFNSNAMGWYRQAPGKERELVAGISRGSSTSYADSVKGRFTISRDNAKNPVYLQMNSLKPADNAVYFCNAEVYSPQQFTPPDRYYYWGQGTQVTVSS | low polyreactivity
QVQLVESGGGLLQAGGSLRLSCAASGRTSDYYAMGWYRQAPGKERELVAAISRSGGRTYYADSVKGRFTISRDNAKNSVYFQMNSLQPEDTAVYYCNAGGTPYVLDEYWGQGTQVTVSS | high polyreactivity
QVQLVESGGGLVQAGGSLRLSCAASGRIFGKYVMGWYRQAPGKERELVAAIRSSGGSTYYADSVKGRFTISRDNAKNTVYLQLNSLKPEDTAVYYCAKRLHYSAPRYTENDYWGQGTQVTVSS | high polyreactivity
QVQLVESGGGLVQAGASLRLSCAASGRTFETNAMGWYSQAPGKEREFVASINWSGGSTYYSDSVKGRFTISRDNAKNTVYLQMNSLKPEDTAVYYCAADHSYWDWWSYYYWGQGTQVTVSS | low polyreactivity
QVQLVESGGGLVQAGGSLRLSCAASGSIFVRYAMGWYRQAPGKERELVAAFTSSAGSTYYADSVKGRFTISRDNAKNTVYLQMNSLKPEDTAVYYCAAVRYYPSKFYYWGQGTQVTVSS | high polyreactivity
QVQLVESGGGLVQAGGSLRLSCAASGRTLVDYGMVWYRQAPGKERELVAVITSGGSTYYADSVKGRFTISRDNAKNTVYLQLNSLIQEDTAVYYCAADNCYRGYHSPYDYWGQGTQVTVSS | low polyreactivity
QVQLVESGGGLVQAGGSLRLSCAASGSTFRLYAMGWYRQAAGKERELVAAISYSGGSTYYADSVKGRFTISRDTAKNTVYLQMNSLKPEETAVYYCNAVRRHGGYYDYGYWGQGTQVTVSS | high polyreactivity
QVQLVESGGGLVQAGGSLRLSCAASGRIFDWNAVGWYRQAPGKERELVAAITWTGGTTYYADSVKGRFTISRDNAKNTVYLQMNSLKPEDTAVYYCAKRGGNQFAYRARSFDYWGQGTQVTLSS | low polyreactivity
QVQLVESGGGLVQAGGSLRLSSDDSGFTFVSNAMGWYRQAPGKEMELVAVISSGGSTTYADSVKGRFTISRDNAKNTVYLQMNSLKPEDTAVYYCATTNYQDSYEGGDYWGQGTQVTVSS | low polyreactivity
HVQLVESGGGLVQAGGSLRLSCAASGSNFDKYAMGGYRQAPGKERELGAAISRGGSSTYYADSVKGRFTISRDNAKNTVYLQMNSLKPEDTAVYYCAARIRNWPAMDYWGQGTQVTVSS | high polyreactivity
QVQLVESGGGLVQAGGSLRLSCAASGRTFRANAMGWYRQAPGKERELVAAISKRGGNTYYADSVKGRFTISRDNAKYTVYLQMNSLKPEDTAVYYCAAHFIGRDYDYWGQGTQVTVSS | high polyreactivity
QVHLVESGGGLVQAGGSLRLSCAASGRIFSNNAMGWYRQAPGKERELVATITGSGGRTYYADSVKGRFTISRDNAKNTVYLQMNSLKPEDTAVYYCAAVKRPDYYYWGQGTQVTVSS | high polyreactivity
QVQLVESGGGLVQAGGSLRLSCAASGFIFYGYTMGWYRQAPGKERELVAAITRGGSTYYADSVKGRFTISRDNAKNTVYLQMNSLKPEDTAVYYCAALTWDGMDYWGQGTQVTVSS | high polyreactivity
QVQLVESGGGLVQAGGSLRLSCAASGRIFPGYTMGWYRQAPGKERELVAGISRSGGRTYYADSVKGRFTISRDNAKNTVYLQMNSLKPEDTAVYYCAADGYPGRRYTGMDYWGQGTQVTVSS | high polyreactivity
QVQLVESGGGLVQAGGSLRLSCAASGSTSYNYVMGWYRQAPGKERELVAAISFTDGTTYYADSVKGRFTISRDNAKNTVYLQMNSLKPEDTAVYYCAAGYTGYTYTEMDYWGQVTQVTVSS | low polyreactivity
